Tests used:
Assay in all cases: peptide or protein array
[1] = target: LIM domain only protein 7 peptide (18-mer) (human)
[2] = target: Myosin-14 peptide (18-mer) (human)
[3] = target: Drebrin peptide (18-mer) (human)
[4] = target: Leucine-rich repeat flightless-interacting protein 2 peptide (18-mer) (human)
[5] = target: FH1/FH2 domain–containing protein 3 peptide (18-mer) (human)
[6] = target: LIM homology domain– and calponin homology domain–containing protein 1 peptide (18-mer) (human)

- relative binding strength (% of the strongest interaction of this SH3 domain) [1]: 12%
- relative binding strength (% of the strongest interaction of this SH3 domain) [2]: 100%
- relative binding strength (% of the strongest interaction of this SH3 domain) [3]: 68%
- relative binding strength (% of the strongest interaction of this SH3 domain) [4]: 65%
- relative binding strength (% of the strongest interaction of this SH3 domain) [5]: 53%
- relative binding strength (% of the strongest interaction of this SH3 domain) [6]: 11%
Substance: GST-tagged ARHGAP10L SH3 domain (domain or fragment)

— publication PMC3553496
